Data on one molecule can be found in patent publication US20080009025A1, “PROTEIN KINASE REGULATION” (priority 1999, published 2008).

This experiment concerns the target GST-PDK1[K115A], O15530. The experiment can be described thus: cell-based or functional assay.

Chain of GST-PDK1[K115A], O15530 (O15530 whole entry K115A): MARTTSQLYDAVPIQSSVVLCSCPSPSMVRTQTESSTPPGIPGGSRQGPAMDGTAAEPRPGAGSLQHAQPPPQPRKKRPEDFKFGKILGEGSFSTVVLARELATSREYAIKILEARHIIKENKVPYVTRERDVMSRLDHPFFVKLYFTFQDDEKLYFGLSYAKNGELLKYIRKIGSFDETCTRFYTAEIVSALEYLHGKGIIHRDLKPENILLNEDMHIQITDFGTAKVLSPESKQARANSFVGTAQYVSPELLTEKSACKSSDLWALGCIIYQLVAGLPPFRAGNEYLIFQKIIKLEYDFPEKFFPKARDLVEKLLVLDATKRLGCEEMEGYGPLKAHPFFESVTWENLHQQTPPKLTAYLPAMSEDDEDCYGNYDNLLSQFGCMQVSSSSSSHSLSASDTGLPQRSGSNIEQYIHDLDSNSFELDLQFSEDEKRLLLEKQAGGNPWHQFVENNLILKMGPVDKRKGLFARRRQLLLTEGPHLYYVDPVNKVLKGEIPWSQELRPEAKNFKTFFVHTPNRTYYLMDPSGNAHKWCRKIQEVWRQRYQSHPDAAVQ

In the case of REPRILSEEEQEMFRDFDYIADWC [PIFtide (24 residue synthetic peptide encompassing the PDK1 binding site on PIF)], the inhibition by 2 µM PIFtide of the activation of S6K1-T2[T412E] and SGK1[T422D] by this PDK1 mutant amounted to 50%; the inhibition by 35 µM PIFtide of the activation of S6K1-T2[T412E] and SGK1[T422D] by this PDK1 mutant is over 95%.
